Data from PMC2921712.

Assays:
microtubules = experiment: co-sedimentation
[1] = target: Oregon Green 488-labeled GMPCPP microtubules; experiment: single-molecule TIRF microscopy
[2] = target: Xenopus CENP-E^1-473 tagged with TagRFP-T (CENP-E^1-473-RFP) (Xenopus laevis); experiment: single-molecule TIRF microscopy with photobleaching steps

Sequence of microtubules (P02550 whole entry, chain 1 of 2, the tested form may be a part): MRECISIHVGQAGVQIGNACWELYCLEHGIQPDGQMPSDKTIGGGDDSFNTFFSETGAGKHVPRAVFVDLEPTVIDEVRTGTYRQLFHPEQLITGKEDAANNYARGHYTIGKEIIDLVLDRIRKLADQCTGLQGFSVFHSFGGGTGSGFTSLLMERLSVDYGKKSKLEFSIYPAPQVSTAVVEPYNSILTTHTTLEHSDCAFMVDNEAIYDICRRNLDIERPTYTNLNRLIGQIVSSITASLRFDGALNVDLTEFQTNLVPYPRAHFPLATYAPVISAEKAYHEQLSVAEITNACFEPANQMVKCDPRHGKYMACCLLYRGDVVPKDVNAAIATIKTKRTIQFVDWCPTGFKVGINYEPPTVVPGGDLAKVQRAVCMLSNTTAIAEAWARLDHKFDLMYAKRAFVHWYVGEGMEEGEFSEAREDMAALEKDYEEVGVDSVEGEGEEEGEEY
Sequence of microtubules (P02554 whole entry, chain 2 of 2, further chain, the tested form may be a part): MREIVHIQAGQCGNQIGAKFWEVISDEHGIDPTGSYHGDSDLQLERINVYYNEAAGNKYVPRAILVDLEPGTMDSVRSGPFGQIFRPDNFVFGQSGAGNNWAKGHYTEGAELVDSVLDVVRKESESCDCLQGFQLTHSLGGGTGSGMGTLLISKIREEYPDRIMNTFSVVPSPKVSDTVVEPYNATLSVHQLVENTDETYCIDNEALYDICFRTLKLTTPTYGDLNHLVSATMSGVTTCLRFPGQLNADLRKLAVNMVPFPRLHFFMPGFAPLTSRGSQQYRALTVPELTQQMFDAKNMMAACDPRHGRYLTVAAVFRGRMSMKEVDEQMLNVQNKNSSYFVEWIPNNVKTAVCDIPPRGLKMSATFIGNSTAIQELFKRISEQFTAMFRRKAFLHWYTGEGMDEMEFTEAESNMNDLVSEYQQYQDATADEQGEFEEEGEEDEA
Sequence of Oregon Green 488-labeled GMPCPP microtubules (P02550 whole entry, chain 1 of 2): as the sequence (P02550 whole entry, chain 1 of 2, the tested form may be a part) above
Sequence of Oregon Green 488-labeled GMPCPP microtubules (P02554 whole entry, chain 2 of 2, further chain): as the sequence (P02554 whole entry, chain 2 of 2, further chain, the tested form may be a part) above

Substance | Kd (microtubules) [nM] | mean duration of binding (t) [1] [s] | time bound at the microtubule end [1] [s] | stoichiometry N [2]
Xenopus CENP-E motor fragment CENP-E^1-473 (domain or fragment) | 2000 |  |  | 
Xenopus CENP-E^1-473 tagged with TagRFP-T (CENP-E^1-473-RFP) (domain or fragment) |  | 17 | 5.8 | 2
Xenopus CENP-E^1-473 phosphorylated by Aurora A (domain or fragment) | 3000 |  |  | 
T424A Xenopus CENP-E^1-473 incubated with Aurora A (domain or fragment) | 3400 |  |  | 
Xenopus CENP-E^1-473-RFP phosphorylated by Aurora A (domain or fragment) |  | 12 |  | 
